The values that follow come from article PMC11050286.

The target of this experiment is human calmodulin wild-type (pIRES-DsRed-HisB-cMyc-CaM WT) (human) (UniProt P0DP23).

“human SK4 R352D/R355D (from UniProt O15554 1-427) (natural protein)” displayed a TRAM-34 sensitive whole-cell K+ current density at +60 mV, HEK293T cells co-transfected with SK4 R352D/R355D and CaM WT, 0.1 uM Cai (not different from background) of 54 pA/pF.
